From PMC5564213
pEC50: −log10 of the molar value.

Target: methemoglobin (UniProt P69905)
Assay: ELISA

Substance | percent loss of hemoglobin binding against the untreated sample [%] | pEC50
DEPC-treated wild-type ShuA (from UniProt P72412 1-660) (natural protein) | 60 | –
DEPC-treated wild-type ShuA further treated with hydroxylamine (from UniProt P72412 1-660) (natural protein) | 40 | –
purified ShuA Ala-L11 (non-phage-displayed) (from UniProt P72412 1-660) (natural protein) | – | 6.28
purified ShuA H86A/H420A (non-phage-displayed) (natural protein) | – | 5.16
purified wild-type ShuA (non-phage-displayed) (from UniProt P72412) (natural protein; other documents disagree on this pair) | – | 6.28
